A short description of series [1]: Melting curves (thermal denaturation, SYPRO Orange fluorescence). The class given is physicochemical. Particulars: fluorescence vs temperature, four independent experiments in triplicate. The procedure:
Melting temperature assays were performed according to the protocol described by Ericsson et al. (31) Protein was diluted to 1 μM in a final volume of 150 μl 5×SYPRO® Orange protein stain (Invitrogen, Carlsbad, Calif.). Samples were aliquoted in triplicate volumes of 40 μl in a 96-well reaction plate. The plate was subjected to a linear thermal shift from 5 to 94° C. in one degree increments in a 7500 Fast Real-Time PCR System (Applied Biosystems, Branchburg, N.J.). The SYBR Green cutoff filter was used for fluorescence detection of denaturing protein-SYPRO® Orange binding. The resulting data were exported to Sigma Plot 9, and the sigmoidal part of the curve was averaged for each triplicate. The averaged curves were subsequently fit to a four parameter sigmoidal equation. The Tm values reported are the results of four independent experiments, each in triplicate, with multiple protein preparations.

Series [2] can be described thus: Product assays (HPLC of arachidonic acid oxygenation products). Type of series: biochemical. The protocol: Incubations were conducted in 0.5 ml 0.1 M Tris pH 7.5 containing 150 mM NaCl and 1 mM CaCl2 with 1-20 μg/ml 5-LOX enzyme. The reaction was initiated by addition of arachidonic acid (10-100 μM) added in 1-5 μl ethanol and monitored by UV spectroscopy until completion of reaction (5-10 min). Products were extracted by adjusting the solution to ˜pH 4 by addition of 50 μl 1 M KH2PO4 plus 5 μl 1N HCl and vigorous mixing with two volumes of dichloromethane. After a brief centrifugation to clear the phases, the lower organic layer was collected, washed twice with 0.5 ml water, taken to dryness under a stream of nitrogen, and then dissolved in a small volume of methanol for storage at −20° C. prior to HPLC. Reversed-phase HPLC was carried out using Agilent 1100 series equipment with a Waters C18 Symmetry column (25×0.46 cm), a solvent of acetonitrile/water/glacial acetic acid (60:40:0.01, v/v/v) or methanol/water/glacial acetic acid (80:20:0.01, v/v/v), a flow rate of 1 ml/min, with UV monitoring at 205 nm, 220 nm, 235 nm and 270 nm. The chirality of the product was confirmed as 5S: Mobile phase hexane/methanol 100:2; 1 ml/min; Chiralpak AD column (4.6×250 mm). The HETEs were made into the methyl esters before chiral analysis using ethereal diazomethane.

The nature of series [3]: Concentration to which the protein can be concentrated. Type of series: physicochemical.
Series [4] can be described thus: Enzyme half-life at 37° C. by monitoring enzyme activity (ΔA238) over 24 hrs. The class given is biochemical.

The results in this text go back to US8877476B2, “Soluble and stable human 5-lipoxygenase” (Board of Supervisors of Louisiana State University and …, priority 2010, dated 2014).

Broadly, the half-life is how long it takes for the measured level to halve.

B1: Sol-5-LOX: more soluble form of human 5-LOX, SEQ ID NO: 2 (W13E, F14H, Δ40-44GS, W75G, L76S, C240A, C561A) (protein)
chain: MGSSHHHHHHSSGLVPRGSHMPSYTVTVATGSQEHAGTDDYIYLSLVGSAGCSEKHLLDKGSFERGAVDSYDVTVDEELGEIQLVRIEKRKYGSNDDWYLKYITLKTPHGDYIEFPCYRWITGDVEVVLRDGRAKLARDDQIHILKQHRRKELETRQKQYRWMEWNPGFPLSIDAKCHKDLPRDIQFDSEKGVDFVLNYSKAMENLFINRFMHMFQSSWNDFADFEKIFVKISNTISERVMNHWQEDLMFGYQFLNGANPVLIRRCTELPEKLPVTTEMVECSLERQLSLEQEVQQGNIFIVDFELLDGIDANKTDPCTLQFLAAPICLLYKNLANKIVPIAIQLNQIPGDENPIFLPSDAKYDWLLAKIWVRSSDFHVHQTITHLLRTHLVSEVFGIAMYRQLPAVHPIFKLLVAHVRFTIAINTKAREQLICECGLFDKANATGGGGHVQMVQRAMKDLTYASLCFPEAIKARGMESKEDIPYYFYRDDGLLVWEAIRTFTAEVVDIYYEGDQVVEEDPELQDFVNDVYVYGMRGRKSSGFPKSVKSREQLSEYLTVVIFTASAQHAAVNFGQYDWASWIPNAPPTMRAPPPTAKGVVTIEQIVDTLPDRGRSCWHLGAVWALSQFQENELFLGMYPEEHFIEKPVKEAMARFRKNLEAIVSVIAERNKKKQLPYYYLSPDRIPNSVAI
modifications: Δ40-44 replaced by GS; Sol-5-LOX
Turning to B1, the “Tm (with s.d.)” value in series [1] was 56.6(±0.4) ° C. For the same molecule, in series [2] (HPLC chromatogram, FIG. 6D / FIG. 8), the “products formed from arachidonic acid” value was “produces both the intermediate 5S-HPETE and the product leukotriene A4”. The “can be concentrated to” value in series [3] stood at 2 mg/mL. Besides, in series [4], the “half-life at 37° C.” value was approximately 7 h.

B2: S663D-Stable-5-LOX: Stable-5-LOX with Serine 663 replaced with Aspartic acid, SEQ ID NO: 4, mimics phosphorylated state (protein)
chain: MGSSHHHHHHSSGLVPRGSHMPSYTVTVATGSQEHAGTDDYIYLSLVGSAGCSEKHLLDKGSFERGAVDSYDVTVDEELGEIQLVRIEKRKYGSNDDWYLKYITLKTPHGDYIEFPCYRWITGDVEVVLRDGRAKLARDDQIHILKQHRRKELETRQKQYRWMEWNPGFPLSIDAKCHKDLPRDIQFDSEKGVDFVLNYSKAMENLFINRFMHMFQSSWNDFADFEKIFVKISNTISERVMNHWQEDLMFGYQFLNGANPVLIRRCTELPEKLPVTTEMVECSLERQLSLEQEVQQGNIFIVDFELLDGIDANKTDPCTLQFLAAPICLLYKNLANKIVPIAIQLNQIPGDENPIFLPSDAKYDWLLAKIWVRSSDFHVHQTITHLLRTHLVSEVFGIAMYRQLPAVHPIFKLLVAHVRFTIAINTKAREQLICECGLFDKANATGGGGHVQMVQRAMKDLTYASLCFPEAIKARGMESKEDIPYYFYRDDGLLVWEAIRTFTAEVVDIYYEGDQVVEEDPELQDFVNDVYVYGMRGRKSSGFPKSVKSREQLSEYLTVVIFTASAQHAAVNFGQYDWASWIPNAPPTMRAPPPTAKGVVTIEQIVDTLPDRGRSCWHLGAVWALSQFQENELFLGMYPEEHFIEKPVKEAMARFRKNLEAIVSVIAERNENLQLPYYYLDPDRIPNSVAI
modifications: S663D-Stable-5-LOX
Take B2: the “change of product specificity by the S663D amino acid change” value in series [2] (Serine 663 replaced with Aspartic acid, method not described) is recorded as “converted the enzyme from a 5-LOX to a 15-LOX”.
